Laboratory results taken from PMC9344466, “The Dual Roles of MAGE-C2 in p53 Ubiquitination and Cell Proliferation Through E3 Ligases MDM2 and TRIM28” (Frontiers in Cell and Developmental Biology, 2022).
Values belong to the binder of their own block, whether it stands above or below them.

Target: T1, SUMO-MDM2 (full length, residues 1-491) (human, UniProt Q00987 1-491)
T1 construct: MDM2, human, full length, residues 1-491; cloned into a SUMO vector (modified pET-28a); eluted without tag cleavage; also called sumo-tagged MDM2; SUMO-MDM2 fusion protein; source: E. coli BL21 (DE3), purified (HisTrap, Superdex 200)
Test: pull-down; GST-tagged MAGE-C2 proteins on glutathione Sepharose beads, SUMO-MDM2 added; both expressed in bacterium; 20 mM Tris pH 8, 150 mM NaCl, 0.2 mM TCEP, 0.02% Triton-100, 5% milk powder, 4°C; anti-MDM2 Western blot (Figure 2A)
Conditions: both partners purified

T1 sequence (Q00987 whole entry, the tested form may be a part): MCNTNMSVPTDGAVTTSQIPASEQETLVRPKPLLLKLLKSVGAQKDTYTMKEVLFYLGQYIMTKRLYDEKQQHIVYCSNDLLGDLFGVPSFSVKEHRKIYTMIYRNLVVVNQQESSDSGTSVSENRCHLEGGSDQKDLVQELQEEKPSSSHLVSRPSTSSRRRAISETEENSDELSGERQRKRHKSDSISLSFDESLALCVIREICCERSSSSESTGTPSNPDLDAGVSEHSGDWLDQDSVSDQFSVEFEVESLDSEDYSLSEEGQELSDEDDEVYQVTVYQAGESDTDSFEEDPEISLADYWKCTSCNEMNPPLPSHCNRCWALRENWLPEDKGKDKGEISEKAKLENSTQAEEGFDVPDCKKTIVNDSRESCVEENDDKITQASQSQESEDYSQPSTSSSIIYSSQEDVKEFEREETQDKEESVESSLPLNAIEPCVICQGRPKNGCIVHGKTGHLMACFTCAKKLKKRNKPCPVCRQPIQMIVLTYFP

- binding result: binds
B1: GST-tagged MAGE-C2 MHD domain (residues 140-350) (domain or fragment, human, UniProt Q9UBF1 140-350, looked up)
chain: TLDEKVAELVEFLLLKYEAEEPVTEAEMLMIVIKYKDYFPVILKRAREFMELLFGLALIEVGPDHFCVFANTVGLTDEGSDDEGMPENSLLIIILSVIFIKGNCASEEVIWEVLNAVGVYAGREHFVYGEPRELLTKVWVQGHYLEYREVPHSSPPYYEFLWGPRAHSESIKKKVLEFLAKLNNTVPSSFPSWYKDALKDVEERVQATIDT
notes: MAGE-C2, human, MAGE homology domain (MHD), residues 140-350; synthetic gene in pGEX-6p-1; In the ubiquitination assays other forms were used (GST cut off in vitro; Myc-tagged in HEK293T cells); also called MHD^WT; GST-MAGE-C2; source: E. coli BL21 (DE3), purified (glutathione Sepharose); not shown: GST, N-terminal, kept

- binding result: binds
B2: GST-tagged MAGE-C2 full length (residues 1-373) (natural protein, human, UniProt Q9UBF1 1-373, looked up)
chain: MPPVPGVPFRNVDNDSPTSVELEDWVDAQHPTDEEEEEASSASSTLYLVFSPSSFSTSSSLILGGPEEEEVPSGVIPNLTESIPSSPPQGPPQGPSQSPLSSCCSSFSWSSFSEESSSQKGEDTGTCQGLPDSESSFTYTLDEKVAELVEFLLLKYEAEEPVTEAEMLMIVIKYKDYFPVILKRAREFMELLFGLALIEVGPDHFCVFANTVGLTDEGSDDEGMPENSLLIIILSVIFIKGNCASEEVIWEVLNAVGVYAGREHFVYGEPRELLTKVWVQGHYLEYREVPHSSPPYYEFLWGPRAHSESIKKKVLEFLAKLNNTVPSSFPSWYKDALKDVEERVQATIDTADDATVMASESLSVMSSNVSFSE
notes: MAGE-C2, human, full length, residues 1-373; synthetic gene in pGEX-6p-1 with a 3C protease site after GST; In the ubiquitination assays the GST tag had been cut off with 3C protease; in the pull-down GST was kept; also called MAGE-C2 FL; GST-MAGE-C2; source: E. coli BL21 (DE3), purified (glutathione Sepharose); not shown: GST, N-terminal, kept
